Experimental data: patent US20220089663A1, “PROTEINS AND FLUOROPHORE-CONTAINING COMPOUNDS SELECTIVE FOR NaV1.7” (MEMORIAL SLOAN KETTERING CANCER CENTER, priority 2019, published 2022)

What was measured:
Assay in all cases: cell-based or functional assay
hNav1.7 (human) = hNav1.7 (human) (UniProt Q15858)
hNav1.5 (human) = hNav1.5 (human) (UniProt Q14524)
hNav1.2 (human) = hNav1.2 (human) (UniProt Q99250)
hNav1.1 (human) = hNav1.1 (human) (UniProt P35498)
hNav1.4 (human) = hNav1.4 (human) (UniProt P35499)
hNav1.6 (human) = hNav1.6 (human) (UniProt Q9UQD0)
hNav1.3 (human) = hNav1.3 (human) (UniProt Q9NY46)

Substance | IC50, automated whole-cell patch clamp (hNav1.7 (human)) | fold selectivity of hNav1.7 over this channel (hNav1.5 (human)) | pIC50, whole-cell patch clamp (QPatch 16X) (hNav1.5 (human)) | fold selectivity of hNav1.7 over this channel (hNav1.2 (human)) | pIC50, whole-cell patch clamp (QPatch 16X) (hNav1.2 (human)) | fold selectivity of hNav1.7 over this channel (hNav1.1 (human)) | pIC50, whole-cell patch clamp (QPatch 16X) (hNav1.1 (human)) | fold selectivity of hNav1.7 over this channel (hNav1.4 (human)) | pIC50, whole-cell patch clamp (QPatch 16X) (hNav1.4 (human)) | fold selectivity of hNav1.7 over this channel (hNav1.6 (human)) | pIC50, whole-cell patch clamp (QPatch 16X) (hNav1.6 (human)) | pIC50, whole-cell patch clamp (QPatch 16X) (hNav1.7 (human)) | recovery of currents after washout (hNav1.7 (human)) | fold selectivity of hNav1.7 over this channel (hNav1.3 (human)) | pIC50, whole-cell patch clamp (QPatch 16X) (hNav1.3 (human))
µ-theraphotoxin-Hsp1a (peptide) | 13 nM |  |  |  |  |  |  |  |  |  |  |  |  |  | 
synthetic Hsp1a (peptide) |  | > 100 fold | < 6 M | 28 fold | 6.52 M | 40 fold | 6.39 M | > 100 fold | < 6 M | > 100 fold | < 6 M | 7.98 M | 10 min | > 100 fold | < 6 M
